From doi:10.1101/2024.05.27.596091 come the findings set out here.

Test [1] addresses αβ-tubulin (bovine) (UniProt Q6B856). Kind of test: co-sedimentation.
Test [2] shares this target. Kind of test: co-sedimentation. This is another data set of the same source.

Read-outs that look alike come from different tables or passages of the source.

As for “αβ-tubulin (from UniProt Q6B856 1-445) (complex)”, the critical concentration for spontaneous nucleation was 3.9 µM with αβ-tubulin (bovine) [1] and 20.7 µM with αβ-tubulin (bovine) [2].
